The target of data set [1] is T1, complement factor D (fD) (Homo sapiens, UniProt P00746 SEQ:1-228). Description: inhibition; alternative-pathway hemolysis of rabbit RBC, C1q-depleted human serum, room temperature. The following applies: protein: extract; tags: endogenous fD in C1q-depleted human serum; label: Dy650-N30S.R.OMe 2'-OMe oligo hybridized to 3' constant region (flow assays). As for the experimental part: Briefly, citrated rabbit blood was centrifuged at 500×g for 5 minutes at room temperature. The top plasma fraction was removed and the volume was replaced with 1× Veronal buffer containing 0.1% gelatin (prepared from 5× Veronal buffer, Lonza #12-624E and 2% gelatin solution, Sigma-Aldrich, G1393). The red blood cells were washed two more times. The washed rabbit red blood cells were diluted in 1× Veronal buffer to a concentration of 2×10⁹ cells/mL (RBCs).
In V-bottom 96-well plates the following reagents were added to a final volume of […] of 1× Veronal buffer with 0.1% gelatin, 100 μL aptamer, 30 μL of C1q-depleted human serum and 20 μL RBCs. This mixture was incubated for 25 minutes at room temperature, then the reaction was stopped by the addition of 5 μL of 500 mM EDTA. The plate was centrifuged for 5 minutes at 500×g at room temperature, then 100 μL of supernatant was removed and the extent of RBC lysis was determined by measuring absorbance at 405 nm.
C1-C3 identified in Example 1, a non-specific control oligo (C8), and one anti-fD Fab antibody fragment as described in Example 1 (AFD) were incubated with C1q-depleted human serum to allow binding to fD present in the serum, then assayed for the ability to inhibit fD-dependent lysis of rabbit red blood cells (FIG. 11). […] IC₅₀ values for C1-C3, C8 and AFD are depicted in Table 14.

The target in data set [2] is T1, complement factor D (fD). Description: FP filter; double-filter nitrocellulose binding; 100 nM DNA, 5 uM fD. The following applies: tags: 6xHis; label: end-labeled; potential G4. As for the experimental part: (§1) Specificity of binding was assessed by measuring binding to casein. In all binding reactions, the oligonucleotide concentration was 100 nM, the fD concentration 5 μM and the casein concentration 20 μM.

Data set [3] deals with T1, complement factor D (fD). Description: FP filter; not above naive library (3.6%); 100 nM DNA, 5 uM fD. Particulars: tags: 6xHis, label: end-labeled. As for the experimental part: as §1

In patent publication US20180051287, “COMPOSITIONS AND METHODS FOR INHIBITING FACTOR D” (Vitrisa Therapeutics, Inc., published 2018) one finds IC50 and binding signal data, which are given here for eleven molecules.

T1 sequence (P00746 26-253): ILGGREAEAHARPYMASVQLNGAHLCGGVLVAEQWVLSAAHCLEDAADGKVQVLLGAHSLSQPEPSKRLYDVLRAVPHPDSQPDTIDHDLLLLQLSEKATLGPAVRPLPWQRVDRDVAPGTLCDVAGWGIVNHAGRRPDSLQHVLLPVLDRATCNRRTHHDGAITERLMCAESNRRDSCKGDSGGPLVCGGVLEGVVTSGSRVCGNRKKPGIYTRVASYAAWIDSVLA

B1: C2 (Aptamer 2) (ssRNA)
RNA: GGGAGUGUGUACGAGGCAUUAGUCCGCCGAAGUCUUUUGGCUCGGUUUUUUCAAGGUCGGCGGCUUUGAUACUUGAUCGCCCUAGAAGC
modifications: 2'-F G; 2'-OMe A, C, U
A word on the IC50: it is the concentration needed to halve the response being measured. Lower therefore signals greater potency in that assay. In turn, B1 came in with an IC50 with complement factor D (fD) [1] of 3.3 nM.

B2: Aptamer 8 (rank 5) (ssDNA)
DNA: GTGACGACTGACATATCTGCTATTTTGGGGCCTGGGTGTTGGGGATTGGGGACTATGTGTCGTAGTTGAGTCTGAGTGCT
Turning to B2, the binding signal with complement factor D (fD) [2] turned out to be 60.3 % bound.

B3: Aptamer 27 (rank 24) (ssDNA)
DNA: GTGACGACTGACATATCTGCGGGCGTCTGAGCGCATGGATGACCCACCGACAGATTGCGGCGTAGTTGAGTCTGAGTGCT
Consider B3, for which the binding signal with complement factor D (fD) [3] (non-G4) was determined as 0.7 % bound.

B4: Aptamer 10 (rank 7) (ssDNA)
DNA: GTGACGACTGACATATCTGCCCTATAGGGGTGTGGGCGAGGGGTGGGTGGTAGGGCGGCTCGTAGTTGAGTCTGAGTGCT
Turning to B4, the binding signal with complement factor D (fD) [3] (potential G4) stood at 1.9 % bound.

B5: Aptamer 15 (rank 12) (ssDNA)
DNA: GTGACGACTGACATATCTGCTGCTTCCAGCGGTCATGATATGCACTGTCTGAAGCTCGGTCGTAGTTGAGTCTGAGTGCT
B5 had a binding signal with complement factor D (fD) [3] (non-G4) of 0.4 % bound.

B6: C1 (Aptamer 1) (ssRNA)
RNA: GGGAGUGUGUACGAGGCAUUAGGCCGCCACCCAAACUGCAGUCCUCGUAAGUCUGCCUGGCGGCUUUGAUACUUGAUCGCCCUAGAAGC
modifications: 2'-F G; 2'-OMe A, C, U
In the data set with complement factor D (fD) [1], B6 had a 50% inhibitory concentration (IC50) of 5.1 nM. This counts as single-digit nanomolar.

B7: Aptamer 12 (rank 9) (ssDNA)
DNA: GTGACGACTGACATATCTGCAAAAGTTAGATTGACATGGTATGCACCGTCTGAGGTTGGTCGTAGTTGAGTCTGAGTGCT
For the molecule B7, the binding signal with complement factor D (fD) [3] (non-G4) was found to be 1.6 % bound.

B8: Aptamer 4 (rank 1) (ssDNA)
DNA: GTGACGACTGACATATCTGCTCCGAGGTTATTGGGGTTGGGGCCTGGGCGATTGGGGCCTCGTAGTTGAGTCTGAGTGCT
In the case of B8, the binding signal with complement factor D (fD) [2] is 58.3 % bound.

B9: C3 (Aptamer 3) (ssRNA)
RNA: GGGAGUGUGUACGAGGCAUUAGGCCGCCACCUCGUUUGAUUGCGGUUGUUCGGCCGCGGGCGGCUUUGAUACUUGAUCGCCCUAGAAGC
modifications: 2'-F G; 2'-OMe A, C, U
Regarding B9, the IC50 in the data set with complement factor D (fD) [1] was determined as 7 nM. In other words, the single-digit nanomolar range.

B10: Aptamer 5 (rank 2) (ssDNA)
DNA: GTGACGACTGACATATCTGCGTTTGGGGTTGGGGCCTGGGAGTTTGGGGAGCAGAAAGGACGTAGTTGAGTCTGAGTGCT
For the molecule B10, the binding signal with complement factor D (fD) [2] was determined as 63 % bound.

B11: Aptamer 7 (rank 4) (ssDNA)
DNA: GTGACGACTGACATATCTGCGGCGGTTGGGGTCGAAGGGCGAGGGGTGGGAGGTCGCCGTAGTTGAGTCTGAGTGCT
In turn, B11 returned a binding signal with complement factor D (fD) [3] (potential G4) of 3.2 % bound.
